Results as given in publication PMC10006087, “The TINCR ubiquitin-like microprotein is a tumor suppressor in squamous cell carcinoma” (Nature Communications, 2023).

Biological target: the molecule itself
Assay: crystal structure; micro-batch under oil at 4 °C with seeding; 0.1 M magnesium sulfate heptahydrate, 0.1 M sodium acetate pH 5, 20% (w/v) PEG 1000; space group P4(3)2(1)2; 2.12 Å; two protomers in the asymmetric unit

B1: human TINCR protein (natural protein, UniProt A0A2R8Y7D0 1-87, looked up)
chain: MEGLRRGLSRWKRYHIKVHLADEALLLPLTVRPRDTLSDLRAQLVGQGVSSWKRAFYYNARRLDDHQTVRDARLQDGSVLLLVSDPR
notes: TINCR ubiquitin-like microprotein, human; The N-terminal 15-residue cap is visible in protomer A only; also called TINCR ubiquitin-like microprotein; TINCR recombinant protein
B1: binds.
